# Source: the nanobody polyreactivity screen of Harvey et al. (2022)
# Test: yeast display, Sf9 membrane polyspecificity reagent, FACS + sequencing; frameworks hold sequencing errors
# Summary of the method: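 Nanobodies from a synthetic yeast display library (Saccharomyces cerevisiae BJ5465), induced 36–48 hours with galactose, were stained 1 hour at 4 °C with 10% biotinylated, detergent-solubilized Sf9 membrane reagent, enriched on streptavidin microbeads, then FACS-sorted. Anti-HA (expression) and streptavidin (reagent binding) fluorescence set low and high (top ~1%) gates. Polyreactivity labels come from the gate of origin. Genes were colony-PCR amplified, MiSeq 2 × 250 sequenced and filtered by CDR length.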
row,Sequence,polyreactivity (PSR sort gate)
1,QVQLVESGGGLVQAGGSLRLTCAASGFTFDTYAMGWYRQAPGKEREFVATISRNSGSTYYADSVKGRFTIARDNAKNTVYLQMNSLKPEDTAVYYCNRRRYGRKSDRMNYWGQGTQVTVSS,high polyreactivity
2,QVQLVESGGGLVQAGGSLRLTCAASGFTFRKNVMGWYRQAPGKERELVAFISSSGGSTYYADSVKGRFTISRDNEKNTGYIPMNSLKPEETAVYYCNAGRYGSNLEYWGQATQVTVSS,low polyreactivity
3,QVQLVESGGGLVQAGGSLRLTCAASGFTFYGYAMGRYRQAPGKERELVAAISSSGTSTYSGDSVKGRFTISRDNAKNTVYLQMNSLKPEDTAVYYCAKDFYRRFYSWGQGTQVTLSS,high polyreactivity
4,QVQLVESGGGLVQAGGSLRLTCAASGFTINFYAMGGYRQAPGKERELVAAITASGGGSTYYADSVKGRFTISRDNAKNTVYLQMNSLKPEDTAVYYCNADYTGSFYTYDYWGQGTQVTVSS,low polyreactivity
5,QVQLVESGGGLVQAGGSLRLTCAASGFTVHNKVMGWYRQAPGKERELVATISKSGGSTYYADSVKGRFTISRDNAKNTVYLEMNSLKPVDTAVYYCARRYGDYGRYGYWGQGTQVTVSS,high polyreactivity
6,QVQLVESGGGLVQAGGSLRLTCAASGFTYTINGMGWYRQAPGKERELVAAINWRGGSTYYADSVKGRFTISRDNAKNTVYLQMNSLKPEDTAVYYCYAVAYIYSYAYPPYWGREHLNYWGQGTQVTVSS,low polyreactivity
7,QVQLVESGGGLVQAGGSLRLTCAASGGIFTDYTMGWYRQAPGKERELVSAITWTGGSTYYADSVKGRFTISRDNAKNTVYLQMNSLKPEDTAVYYCYVVKYVYIYSYWEYYFWGQGTQVTVSS,low polyreactivity
8,QVQLVESGGGLVQAGGSLRLTCAASGGTFGSYAMGWYRPAPGKERELVAVISSGGSTYYADSVKGRFTISRDNAKNTVYLQMNSLKPEDTAVYYCARRTRTTRGKNGYWGQGTKVTVSS,high polyreactivity
9,QVQLVESGGGLVQAGGSLRLTCAASGGTFYANAMGWYRQAPGTERELVAAITSGGSTNYADSVKGRFTISRDNAKNTVYLQMNSLKPEDTAVYYCNAAAQRRYWHSYFRRYDYWGQGTQVTVSS,low polyreactivity
10,QVQLVESGGGLVQAGGSLRLTCAASGHIFFYYTMGWYRQAPGKERELVARISSDGDTYYADSVKGRFTISRDNAKNTVYLQMNSLKPEDTAVYYCAAAVLYWVGYGYWGQGTQVTVSS,low polyreactivity
11,QVQLVESGGGLVQAGGSLRLTCAASGIIFGENARGWYRQAPGKERELVDAINSVGSTYYADSVKGRFTISRDNAKNTVYLQMNSLKPEDTAVYYCAAESWFLRWYRYDYWGQGTQVTVSS,low polyreactivity
12,QVQLVESGGGLVQAGGSLRLTCAASGIIFGKYTMGWYRPAPGKERELVADISKRGGSTYYADSVKGRFTISRDHAKNTVYLQMNSLKPEDTAVYNCAAERISSYDYWGQGTQVTVSS,high polyreactivity
13,QVQLVESGGGLVQAGGSLRLTCAASGIIFYGYAMGCYRQAPGKERELVADISFSGGRTYYSDSVKGRFTISRDNAKNTVYLQMNRLKQEDTAVYYCAKRRFYRTSQYVKYDYWGQGTQVTVSS,low polyreactivity
14,QVQLVESGGGLVQAGGSLRLTCAASGITFKFYAMGWYRQAPGKESELVAAITSGGGSTYYADSVKGRFTISRDNAKNTVYLQMNILKPEDTAVYYCNTYSIAYYSPCYDYWGQGTQVNVSS,high polyreactivity
15,QVQLVESGGGLVQAGGSLRLTCAASGITFYGNAMGWYRQAPGKERELVANTYYADSVKGRFTISRDNAKNTVYLQMNSLIAEDTAVYYCATRNARYRSQPPGYDYWGQGTQVTVSS,low polyreactivity
16,QVQLVESGGGLVQAGGSLRLTCAASGLIFPRYAMGWYRQAPGKERELVAAISRRGGSTRYADSVKGRFTISRDNAKNTVYLQMNSLKPEDTAVYYCAAPDFPKYYPTAYLQADEYWGQGTQVTVSS,high polyreactivity
17,QVQLVESGGGLVQAGGSLRLTCAASGLIFVAYAMGWYRQAPGKERELVAAISWSGGDTYYADSVKGRFTISRDNAKNTVYLQMNSLKPEDTAVYYCAADYYPYGYDSWGQGTQVTVSS,low polyreactivity
18,QVQLVESGGGLVQAGGSLRLTCAASGLILVPNTMGWYRQAPGTERELVAAISYSGGGTYYADSVKGRFTISRDNAKNTVYLQMNSLKPEDTAVYYCAAYVKRESAPYGYWGQGTQVTVSS,low polyreactivity
19,QVQLVESGGGLVQAGGSLRLTCAASGLTFERYAMGWYRQAPGKETELVAAISIRGGSTYYADSVKGRFTISRYNAKNTVYLQMNSLKPEVTAVYYCSADGRGREYDYWGQGTQVTVSS,low polyreactivity
20,QVQLVESGGGLVQAGGSLRLTCAASGLTFYSNTMGWYIQAPGKERELVAAISWTGTSTYYADSVKVRFTISRDNAKNTVFLQMNSLKAEDTAVYYWNALGYARSYDSWGQGTQVTVSS,high polyreactivity
21,QVQLVESGGGLVQAGGSLRLTCAASGNIFGIYTMGWYRQAPGKEREFFAVISLSGTSTYYADSVKGRFTISRDNAKNTVYLQMKSLKPEDTAVYYCNARTPHNKGRRRAYDYWGQATQVTVSS,high polyreactivity

row,Sequence,polyreactivity (PSR sort gate)
1,QVQLVESGGGLVQAGGSLRLTCAASGNTFFFNTMGWYRQAPGKERELVAVISSSGGTYYADSVKGRFTISRDNAKNTVYLQMNSLKQEDTAVYYCNADWHTHGYPTGKTGFKYYYWGQGTQVTVSS,low polyreactivity
2,QVQLVESGGGLVQAGGSLRLTCAASGNTFVGNAMGWYRQAPGKERELVAAISRRGGSTYYADSVKGRFTISRDYAKNTVYLQMNSLKPEDTAEYYCAVGWAGRYDYWGQGTQVTVSS,low polyreactivity
3,QVQLVESGGGLVQAGGSLRLTCAASGRIAWYRQAPGKERELVAAITSGDRTNYADSVKRRFTISRDNAKNTVYFQMNSLKPEDTAVYYCATEPSWYHGFIDPRGYWGQGTQVTVSS,low polyreactivity
4,QVQLVESGGGLVQAGGSLRLTCAASGRICSNYAMGWYRPARGKERELLAAITVIGGRTYYADSVKGRFTISRDNPKNTVYLHMNSPKPEDTAVYYCAATPRRPWFYGSDYWGQGTQVTVSS,high polyreactivity
5,QVQLVESGGGLVQAGGSLRLTCAASGRIFDGYAMGWYRQPPRKERELVAAISSRGGRTYYADSVKGRFTISRDNAKNTVYLQMNSLKPEDTAVYYCAADDPYGEGDYWGQGTQVTVSS,low polyreactivity
6,QVQLVESGGGLVQAGGSLRLTCAASGRIFGPYVLGWYRQAPGKERELVAAISTSGTSTYYADSVKGRFTISRDNAKNTVYLQMNSLKPEDTAVYYCAKRSGARHRLMDYWGQGTQVTVSS,low polyreactivity
7,QVQLVESGGGLVQAGGSLRLTCAASGRIFGSYAMGWYRQAPGKERELVAAITRRGGSTYYADSVKGRFTISRDNAKNTVYLQMNSLKPEDTAVYYCAPERTSAYDYWGQGTQVTVSS,high polyreactivity
8,QVQLVESGGGLVQAGGSLRLTCAASGRIFLINAMGWYRPAPGKERDLVATISRSGASTDYADSVKGRFTISRDNAKYIVYLQMKSMKPEDTAVYYCNAKVYKRRVVPYDYWGQGSQVTVSS,high polyreactivity
9,QVQLVESGGGLVQAGGSLRLTCAASGRIFNTYAMGWYRQAPGKERELVAAITRSAGRTYYADSVKGRFTISRDNAKNTVYLQMNSLKPEDTAVYYCNAEGSSVLTGYCGYPPYWDTYDYWGQGTQVTLSS,low polyreactivity
10,QVQLVESGGGLVQAGGSLRLTCAASGRIFSGYAMGWYRQEPGKEREFVASISTSGARTYYADSVKGRFTISRDNAKNTVYLQMNRLKPEDTAVYYCAKVIRWISYRGWYDYWGQGTQVTVSS,high polyreactivity
11,QVQLVESGGGLVQAGGSLRLTCAASGRIFSRNAMGWYRQAPGKERELVAAISSSGGSTSYADSVKGRFTISRDNAKNTVYLQMNSLKPEDTAVYYCAADSYPAYLGFVGFDYWGQGTQVTVSS,low polyreactivity
12,QVQLVESGGGLVQAGGSLRLTCAASGRIFSYNAMGWYRQAPGKERELVAAITGGGSTNYADSVKGRFTISRDNAKNTVFLQMNSLKPEDTAVYYCAARSWSYKYWGQGTQVTVSS,high polyreactivity
13,QVQLVESGGGLVQAGGSLRLTCAASGRPFGKNGMGWYRQAPGKEREWVAAISLSGGSTYYADSVKGRFTISRDYAKNTVYLQMNSLKPEDTAVYYCAAYGIRGPVYQYYFWGQGTQVTVSS,low polyreactivity
14,QVQLVESGGGLVQAGGSLRLTCAASGRTFAWYAMGWYRQAPGKERELVAAISSGGSTYYADSVKGRFTISRDNAKNTVYLQMDSLKPEDTAVYYCAAEWHYIYAYDYWGQGTQVTVSS,low polyreactivity
15,QVQLVESGGGLVQAGGSLRLTCAASGRTFDCYAMGLYRQAPGKERELVAAISSRGGSTYYADSVKGRFTISRDNAKNTVYLQMNSLKPEDTSVYYCAKDLGYRGRYNYWGQGTQVTVSS,low polyreactivity
16,QVQLVESGGGLVQAGGSLRLTCAASGRTFFVYAMGWYRPAPGKERELVASITLSGGSTYYADSVKGRFTISRDNAKNTVYLQMNSLKPEDTAVYYCAKGWSRDNDREREDEYWGQGTQVTVSS,low polyreactivity
17,QVQLVESGGGLVQAGGSLRLTCAASGRTFPRYAMGWYRQAPGKERELVAAINSGGSTYYADSVKGRFTISRDNAKNSVYLQMNSLKPEDTAVYYCAAEGYTLGDGVYWIGPYDYWGQGTQLTVSS,high polyreactivity
18,QVQLVESGGGLVQAGGSLRLTCAASGRTFQYNAMVWYRQAPGKERELVAAISSSGGSTYYADSVKGRFTISRDNAKNTVYLQMNSLKPEDTAVYYCNAYSQSWNFYGDGDYWGQGTQVTVSS,low polyreactivity
19,QVQLVESGGGLVQAGGSLRLTCAASGRTFRIYAMGWYRQAPGKERELVAAIRWSGGTTYYADSVKGRFTISRDNAKNTVYFQMNSLKPEDTAVYYCAADSTNRYDYWGQGTQVTVSS,high polyreactivity
20,QVQLVESGGGLVQAGGSLRLTCAASGRTFRPYAMGGYRQAPGKERQLVAAITYSGGSTYYADSVKGRFTISRDNAKNTVYLQMNSLKPEDTAVYYCAAEIAATYRPEYDYWGQGTQVTVSS,high polyreactivity
